Experimental data from patent publication US20220229068A1, “DETECTION OF PROTEIN TO PROTEIN INTERACTIONS” (THE GOVERNING COUNCIL OF THE UNIVERSITY OF TORONTO, priority 2019, published 2022).
Values belong to the binder of their own block, whether it stands above or below them.

Legend:
Assay in all cases: SIMPL ELISA, bait-IN/prey-CIC
[1] = target: T1, FRS2 (prey, CIC format) (human) (UniProt Q8WU20)
T1 sequence (looked up): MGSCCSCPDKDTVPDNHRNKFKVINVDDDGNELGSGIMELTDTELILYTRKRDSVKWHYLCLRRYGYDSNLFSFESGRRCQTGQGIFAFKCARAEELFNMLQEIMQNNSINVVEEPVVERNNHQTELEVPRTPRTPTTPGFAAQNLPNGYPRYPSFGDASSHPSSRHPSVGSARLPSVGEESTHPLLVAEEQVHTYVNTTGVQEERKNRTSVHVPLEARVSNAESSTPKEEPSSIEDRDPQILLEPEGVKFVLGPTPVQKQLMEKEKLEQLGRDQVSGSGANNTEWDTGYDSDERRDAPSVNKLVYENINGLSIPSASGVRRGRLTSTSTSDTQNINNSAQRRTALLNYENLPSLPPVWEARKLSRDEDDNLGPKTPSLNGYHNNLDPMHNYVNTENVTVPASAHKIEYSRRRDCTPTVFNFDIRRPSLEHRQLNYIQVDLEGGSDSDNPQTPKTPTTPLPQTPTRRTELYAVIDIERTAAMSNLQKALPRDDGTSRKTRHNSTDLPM

[2] = target: T2, PDPK1 (prey, CIC format) (human) (UniProt O15530)
T2 sequence (looked up): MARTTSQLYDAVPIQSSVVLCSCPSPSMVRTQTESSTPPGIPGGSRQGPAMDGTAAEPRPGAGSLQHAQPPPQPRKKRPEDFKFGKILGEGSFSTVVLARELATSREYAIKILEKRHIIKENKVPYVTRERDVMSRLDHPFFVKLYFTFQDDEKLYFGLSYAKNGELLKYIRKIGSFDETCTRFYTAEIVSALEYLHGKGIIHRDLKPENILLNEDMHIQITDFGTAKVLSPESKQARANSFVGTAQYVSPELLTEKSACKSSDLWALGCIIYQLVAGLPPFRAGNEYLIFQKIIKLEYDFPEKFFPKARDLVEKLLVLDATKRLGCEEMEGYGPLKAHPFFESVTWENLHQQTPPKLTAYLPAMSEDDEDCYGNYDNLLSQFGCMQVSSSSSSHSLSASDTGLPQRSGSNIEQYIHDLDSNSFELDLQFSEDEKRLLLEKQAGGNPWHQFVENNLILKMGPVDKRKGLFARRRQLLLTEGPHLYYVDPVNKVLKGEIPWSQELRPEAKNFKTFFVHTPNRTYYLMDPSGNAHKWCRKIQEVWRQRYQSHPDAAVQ

[3] = target: PCNA (prey, CIC format) (human) (UniProt P12004)
[4] = target: T3, PTPN11 (prey, CIC format) (human) (UniProt Q06124)
T3 sequence (looked up): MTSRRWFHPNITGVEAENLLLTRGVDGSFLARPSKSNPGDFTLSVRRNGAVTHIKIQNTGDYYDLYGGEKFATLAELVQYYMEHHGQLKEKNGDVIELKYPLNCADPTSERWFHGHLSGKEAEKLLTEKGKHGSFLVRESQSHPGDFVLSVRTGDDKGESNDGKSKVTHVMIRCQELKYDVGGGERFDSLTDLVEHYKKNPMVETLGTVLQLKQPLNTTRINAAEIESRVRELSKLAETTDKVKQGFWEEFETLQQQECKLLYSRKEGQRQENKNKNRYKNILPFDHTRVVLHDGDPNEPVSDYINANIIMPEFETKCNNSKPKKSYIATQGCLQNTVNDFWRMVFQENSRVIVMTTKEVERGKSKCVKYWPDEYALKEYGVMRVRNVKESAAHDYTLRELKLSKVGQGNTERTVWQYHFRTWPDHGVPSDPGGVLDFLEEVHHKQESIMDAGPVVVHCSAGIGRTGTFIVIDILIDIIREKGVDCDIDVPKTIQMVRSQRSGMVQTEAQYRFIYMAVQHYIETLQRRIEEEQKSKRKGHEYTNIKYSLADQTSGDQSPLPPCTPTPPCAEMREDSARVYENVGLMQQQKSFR

[5] = target: T4, BATF (prey, CIC format) (human) (UniProt Q16520)
T4 sequence (looked up): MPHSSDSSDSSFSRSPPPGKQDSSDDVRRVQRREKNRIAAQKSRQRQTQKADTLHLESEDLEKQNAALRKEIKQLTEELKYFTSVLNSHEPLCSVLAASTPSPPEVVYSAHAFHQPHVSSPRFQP

[6] = substrate: FOS (prey, CIC format) (human) (UniProt P01100)
[7] = target: ARHGAP1 (prey, CIC format) (human) (UniProt Q07960)
[8] = target: CASP9 (prey, CIC format) (human) (UniProt P55211)
[9] = target: DDIT3 (prey, CIC format) (human) (UniProt P35638)
[10] = target: LMNB1 (prey, CIC format) (human) (UniProt P20700)
[11] = target: T5, NCBP2 (prey, CIC format) (human) (UniProt P52298)
T5 sequence (looked up): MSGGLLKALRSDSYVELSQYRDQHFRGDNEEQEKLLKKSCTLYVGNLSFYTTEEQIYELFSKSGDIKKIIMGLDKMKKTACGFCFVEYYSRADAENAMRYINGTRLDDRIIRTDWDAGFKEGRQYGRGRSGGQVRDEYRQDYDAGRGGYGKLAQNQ

[12] = target: T6, S100B (prey, CIC format) (human) (UniProt P04271)
T6 sequence (looked up): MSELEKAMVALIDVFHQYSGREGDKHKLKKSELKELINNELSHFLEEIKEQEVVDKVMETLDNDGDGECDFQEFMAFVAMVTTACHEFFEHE

[13] = target: T7, NTF4 (prey, CIC format) (human) (UniProt P34130)
T7 sequence (looked up): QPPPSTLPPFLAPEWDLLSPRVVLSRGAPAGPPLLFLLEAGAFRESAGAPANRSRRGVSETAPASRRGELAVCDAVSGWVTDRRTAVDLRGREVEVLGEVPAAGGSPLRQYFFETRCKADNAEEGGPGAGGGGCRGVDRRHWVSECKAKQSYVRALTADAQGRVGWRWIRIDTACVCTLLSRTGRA

[14] = target: T8, DRAP1 (prey, CIC format) (human) (UniProt Q14919)
T8 sequence (looked up): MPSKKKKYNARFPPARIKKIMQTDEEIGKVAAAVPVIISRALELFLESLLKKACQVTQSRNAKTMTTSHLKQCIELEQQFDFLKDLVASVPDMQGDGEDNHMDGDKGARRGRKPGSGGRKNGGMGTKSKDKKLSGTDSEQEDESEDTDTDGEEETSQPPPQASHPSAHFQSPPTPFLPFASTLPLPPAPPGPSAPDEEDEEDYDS

[15] = target: T9, DCP1A (prey, CIC format) (human) (UniProt Q9NPI6)
T9 sequence (looked up): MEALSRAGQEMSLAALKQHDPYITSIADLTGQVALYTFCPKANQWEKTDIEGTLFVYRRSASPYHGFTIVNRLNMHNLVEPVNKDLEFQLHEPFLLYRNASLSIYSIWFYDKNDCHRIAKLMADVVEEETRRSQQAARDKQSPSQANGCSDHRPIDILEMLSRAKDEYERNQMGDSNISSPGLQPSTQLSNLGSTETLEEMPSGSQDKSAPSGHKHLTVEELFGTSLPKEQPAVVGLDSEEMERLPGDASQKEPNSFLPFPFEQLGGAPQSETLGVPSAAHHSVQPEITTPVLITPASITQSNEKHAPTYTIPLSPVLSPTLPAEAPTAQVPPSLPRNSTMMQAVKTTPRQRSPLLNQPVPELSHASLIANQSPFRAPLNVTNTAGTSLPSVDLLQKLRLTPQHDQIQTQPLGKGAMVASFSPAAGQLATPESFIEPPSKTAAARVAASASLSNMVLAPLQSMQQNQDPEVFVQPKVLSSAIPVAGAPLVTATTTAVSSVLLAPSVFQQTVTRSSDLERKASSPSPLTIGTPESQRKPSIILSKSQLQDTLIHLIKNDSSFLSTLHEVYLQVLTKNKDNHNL

[16] = target: BCL2L1 (prey, CIC format) (human) (UniProt Q07817)
Sequence of BCL2L1 (prey, CIC format) (human) (Q07817 whole entry): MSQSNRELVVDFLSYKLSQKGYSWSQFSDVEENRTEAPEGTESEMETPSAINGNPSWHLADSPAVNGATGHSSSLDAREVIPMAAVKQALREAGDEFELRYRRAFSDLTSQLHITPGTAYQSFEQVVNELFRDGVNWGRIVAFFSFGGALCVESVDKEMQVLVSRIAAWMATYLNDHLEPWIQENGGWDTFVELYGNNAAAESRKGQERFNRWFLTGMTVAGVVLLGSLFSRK

Sequence of DDIT3 (prey, CIC format) (human) (P35638 whole entry): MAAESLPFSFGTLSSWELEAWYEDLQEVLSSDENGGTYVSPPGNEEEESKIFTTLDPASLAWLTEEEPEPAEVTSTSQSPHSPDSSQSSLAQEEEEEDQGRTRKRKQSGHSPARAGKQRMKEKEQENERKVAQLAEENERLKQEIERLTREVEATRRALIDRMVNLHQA
Sequence of ARHGAP1 (prey, CIC format) (human) (Q07960 whole entry): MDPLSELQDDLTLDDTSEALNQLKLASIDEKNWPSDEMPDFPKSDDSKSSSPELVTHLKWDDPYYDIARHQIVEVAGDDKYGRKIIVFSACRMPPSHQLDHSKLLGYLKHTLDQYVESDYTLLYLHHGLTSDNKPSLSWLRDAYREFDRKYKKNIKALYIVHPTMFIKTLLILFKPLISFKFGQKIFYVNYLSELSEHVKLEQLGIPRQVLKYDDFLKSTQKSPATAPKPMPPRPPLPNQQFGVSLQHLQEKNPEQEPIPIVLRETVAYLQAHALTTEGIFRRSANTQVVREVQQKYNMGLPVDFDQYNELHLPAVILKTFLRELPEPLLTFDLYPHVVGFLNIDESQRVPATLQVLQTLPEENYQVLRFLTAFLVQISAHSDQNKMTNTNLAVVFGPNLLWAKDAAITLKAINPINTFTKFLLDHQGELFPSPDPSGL
Sequence of PCNA (prey, CIC format) (human) (P12004 whole entry): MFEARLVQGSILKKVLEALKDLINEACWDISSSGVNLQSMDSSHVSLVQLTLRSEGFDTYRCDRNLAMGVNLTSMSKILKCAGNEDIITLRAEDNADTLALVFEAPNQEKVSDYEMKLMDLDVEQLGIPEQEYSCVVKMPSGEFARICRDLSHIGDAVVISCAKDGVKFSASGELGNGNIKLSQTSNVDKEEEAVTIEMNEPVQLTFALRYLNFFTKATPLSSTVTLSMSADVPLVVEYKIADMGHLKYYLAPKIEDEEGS
Sequence of CASP9 (prey, CIC format) (human) (P55211 whole entry): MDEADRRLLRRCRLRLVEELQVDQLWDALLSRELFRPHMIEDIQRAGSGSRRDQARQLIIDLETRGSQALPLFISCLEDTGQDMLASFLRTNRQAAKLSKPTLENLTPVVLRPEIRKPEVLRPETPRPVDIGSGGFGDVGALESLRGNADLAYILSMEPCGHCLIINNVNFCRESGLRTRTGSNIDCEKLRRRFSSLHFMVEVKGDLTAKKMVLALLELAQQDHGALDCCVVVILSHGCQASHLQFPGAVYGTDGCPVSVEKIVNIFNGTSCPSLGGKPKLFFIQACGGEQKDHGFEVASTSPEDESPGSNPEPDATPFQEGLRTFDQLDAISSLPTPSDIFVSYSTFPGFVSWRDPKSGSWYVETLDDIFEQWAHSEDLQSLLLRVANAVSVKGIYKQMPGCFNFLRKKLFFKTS
Sequence of FOS (prey, CIC format) (human) (P01100 whole entry): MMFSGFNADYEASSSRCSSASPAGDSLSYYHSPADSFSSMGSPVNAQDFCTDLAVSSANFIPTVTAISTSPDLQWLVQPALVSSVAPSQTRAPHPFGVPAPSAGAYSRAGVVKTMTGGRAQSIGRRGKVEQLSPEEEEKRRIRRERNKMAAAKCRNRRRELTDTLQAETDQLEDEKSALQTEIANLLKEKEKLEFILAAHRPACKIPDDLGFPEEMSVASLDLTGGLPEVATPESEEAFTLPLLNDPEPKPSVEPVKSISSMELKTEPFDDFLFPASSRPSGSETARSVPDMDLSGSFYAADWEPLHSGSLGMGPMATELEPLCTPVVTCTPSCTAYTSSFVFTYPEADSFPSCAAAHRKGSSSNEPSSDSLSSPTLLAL
Sequence of LMNB1 (prey, CIC format) (human) (P20700 whole entry): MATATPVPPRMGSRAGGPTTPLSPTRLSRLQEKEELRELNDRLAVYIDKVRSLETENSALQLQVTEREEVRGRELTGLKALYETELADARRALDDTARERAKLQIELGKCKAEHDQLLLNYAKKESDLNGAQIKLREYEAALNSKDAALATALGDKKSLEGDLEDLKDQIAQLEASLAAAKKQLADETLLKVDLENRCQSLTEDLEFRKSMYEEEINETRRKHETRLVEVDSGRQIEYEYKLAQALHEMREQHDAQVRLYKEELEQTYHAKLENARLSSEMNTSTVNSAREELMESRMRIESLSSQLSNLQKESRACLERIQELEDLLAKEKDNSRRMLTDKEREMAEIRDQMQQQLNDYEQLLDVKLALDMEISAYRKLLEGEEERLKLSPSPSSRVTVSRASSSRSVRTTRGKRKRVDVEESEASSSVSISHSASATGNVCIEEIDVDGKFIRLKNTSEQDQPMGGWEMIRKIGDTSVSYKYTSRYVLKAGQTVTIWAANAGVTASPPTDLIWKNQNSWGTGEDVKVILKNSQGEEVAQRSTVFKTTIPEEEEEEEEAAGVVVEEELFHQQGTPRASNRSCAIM

B3: CEBPG (bait, IN format) (protein, human, UniProt P53567 1-150, looked up)
chain: MSKISQQNSTPGVNGISVIHTQAHASGLQQVPQLVPAGPGGGGKAVAPSKQSKKSSPMDRNSDEYRQRRERNNMAVKKSRLKSKQKAQDTLQRVNQLKEENERLEAKIKLLTKELSVLKDLFLEHAHNLADNVQSISTENTTADGDNAGQ
PLU mean [6]: 0.788 | PLU mean [7]: 0.0585 | PLU mean [8]: 0.482

B4: ATF3 (bait, IN format) (protein, human, UniProt P18847 1-181, looked up)
chain: MMLQHPGQVSASEVSASAIVPCLSPPGSLVFEDFANLTPFVKEELRFAIQNKHLCHRMSSALESVTVSDRPLGVSITKAEVAPEEDERKKRRRERNKIAAAKCRNKKKEKTECLQKESEKLESVNAELKAQIEELKNEKQHLIYMLNLHRPTCIVRAQNGRTPEDERNLFIQQIKEGTLQS
PLU mean [9]: 1.64 | PLU mean [10]: 0.134

B6: DR1 (bait, IN format) (protein, human, UniProt Q01658 1-176, looked up)
chain: MASSSGNDDDLTIPRAAINKMIKETLPNVRVANDARELVVNCCTEFIHLISSEANEICNKSEKKTISPEHVIQALESLGFGSYISEVKEVLQECKTVALKRRKASSRLENLGIPEEELLRQQQELFAKARQQQAELAQQEWLQMQQAAQQAQLAAASASASNQAGSSQDEEDDDDI
PLU mean [13]: 0.0529 | PLU mean [14]: 3.97

B7: BAD (bait, IN format) (protein, human, UniProt Q92934 1-168, looked up)
chain: MFQIPEFEPSEQEDSSSAERGLGPSPAGDGPSGSGKHHRQAPGLLWDASHQQEQPTSSSHHGGAGAVEIRSRHSSYPAGTEDDEGMGEEPSPFRGRSRSAPPNLWAAQRYGRELRRMSDEFVDSFKKGLPRPKSAGTATQMRQSSSWTRVFQSWWDRNLGRGSSAPSQ
PLU mean [15]: 0.499 | PLU mean [16]: 1.85

The remaining lines, values ahead:

PLU mean [1]: 0.21 | PLU mean [2]: 0.265 | PLU mean [3]: 0.0617
B1: GADD45A (bait, IN format) (protein, human, UniProt P24522 1-165, looked up)
chain: MTLEEFSAGEQKTERMDKVGDALEEVLSKALSQRTITVGVYEAAKLLNVDPDNVVLCLLAADEDDDRDVALQIHFTLIQAFCCENDINILRVSNPGRLAELLLLETDAGPAASEGAEQPPDLHCVLVTNPHSSQWKDPALSQLICFCRESRYMDQWVPVINLPER

PLU mean [4]: 0.345 | PLU mean [5]: 2.04
B2: JUNB (bait, IN format) (protein, human, UniProt P17275 1-347, looked up)
chain: MCTKMEQPFYHDDSYTATGYGRAPGGLSLHDYKLLKPSLAVNLADPYRSLKAPGARGPGPEGGGGGSYFSGQGSDTGASLKLASSELERLIVPNSNGVITTTPTPPGQYFYPRGGGSGGGAGGAGGGVTEEQEGFADGFVKALDDLHKMNHVTPPNVSLGATGGPPAGPGGVYAGPEPPPVYTNLSSYSPASASSGGAGAAVGTGSSYPTTTISYLPHAPPFAGGHPAQLGLGRGASTFKEEPQTVPEARSRDATPPVSPINMEDQERIKVERKRLRNRLAATKCRKRKLERIARLEDKVKTLKAENAGLSSTAGLLREQVAQLKQKVMTHVSNGCQLLLGVKGHAF

PLU mean [11]: 2.15 | PLU mean [12]: 0.217
B5: NCBP1 (bait, IN format) (protein, human, UniProt Q09161 1-790, looked up)
chain: MSRRRHSDENDGGQPHKRRKTSDANETEDHLESLICKVGEKSACSLESNLEGLAGVLEADLPNYKSKILRLLCTVARLLPEKLTIYTTLVGLLNARNYNFGGEFVEAMIRQLKESLKANNYNEAVYLVRFLSDLVNCHVIAAPSMVAMFENFVSVTQEEDVPQVRRDWYVYAFLSSLPWVGKELYEKKDAEMDRIFANTESYLKRRQKTHVPMLQVWTADKPHPQEEYLDCLWAQIQKLKKDRWQERHILRPYLAFDSILCEALQHNLPPFTPPPHTEDSVYPMPRVIFRMFDYTDDPEGPVMPGSHSVERFVIEENLHCIIKSHWKERKTCAAQLVSYPGKNKIPLNYHIVEVIFAELFQLPAPPHIDVMYTTLLIELCKLQPGSLPQVLAQATEMLYMRLDTMNTTCVDRFINWFSHHLSNFQFRWSWEDWSDCLSQDPESPKPKFVREVLEKCMRLSYHQRILDIVPPTFSALCPANPTCIYKYGDESSNSLPGHSVALCLAVAFKSKATNDEIFSILKDVPNPNQDDDDDEGFSFNPLKIEVFVQTLLHLAAKSFSHSFSALAKFHEVFKTLAESDEGKLHVLRVMFEVWRNHPQMIAVLVDKMIRTQIVDCAAVANWIFSSELSRDFTRLFVWEILHSTIRKMNKHVLKIQKELEEAKEKLARQHKRRSDDDDRSSDRKDGVLEEQIERLQEKVESAQSEQKNLFLVIFQRFIMILTEHLVRCETDGTSVLTPWYKNCIERLQQIFLQHHQIIQQYMVTLENLLFTAELDPHILAVFQQFCALQA
